Consider 41 sequences from the nanobody polyreactivity screen of Harvey et al. (2022).

This data set is described as follows: yeast display, Sf9 membrane polyspecificity reagent, FACS + sequencing; frameworks hold sequencing errors. The procedure, abridged: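 Nanobodies came from a synthetic yeast display library in Saccharomyces cerevisiae BJ5465, induced with galactose for 36–48 hours and stained for 1 hour at 4 °C with 10% biotinylated, detergent-solubilized Sf9 membrane reagent. Cells were enriched on streptavidin microbeads and then FACS-sorted, with low and high (top ~1%) gates set on anti-HA fluorescence for expression and streptavidin fluorescence for reagent binding. Each polyreactivity label reflects the gate a clone came from. Genes were amplified by colony PCR, sequenced by MiSeq 2 × 250 and filtered by CDR length.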
Regarding “QGQLVESGGGLVQAGGSLRLSCAASGYIFLTNAMGWSREAPGKERVLVAAISWRGGRTYYADSVKGRFTISRDNAKNTVYLQMNSLKPEDTAVYYCNAVCEYYGKSDYWGQGTQVTVSS”, the “polyreactivity (PSR sort gate)” value is “low polyreactivity”.

For “QGQLVESGGGLVQAGGSLRLSCAASGYTFYANAMGWYRQAPGNEREFVASITWSGGSTYYADSVKGRFTLSRDNAKNTVYLQMNSLKPEDTAVSDCAAESWFKYDYWGQGTQVTVSS”, the “polyreactivity (PSR sort gate)” value is listed as “low polyreactivity”.

Regarding “QGQLVESGGGLVQAGGSLRLSCDASGRIFRKYDMGWYRQAPGKERELVAAISGTGITYYADSVKGRFTISRDNANNTVYLQMNSLKPEDTAVYYCARGSKPRALSWADPSATSIYDYWGQGTQVTVSS”, the “polyreactivity (PSR sort gate)” value is “low polyreactivity”.

In the case of “QGQLVESGGGLVQAGGSLRLSCPASGRIFNTYAMGWYRQAPGKERELVAAINWSGGRTYYADSVKGRFTISRDNAKNTVYLQMNSLKPEDSAVYYCKARGRRRVPEFDYWGQGSQVTVSS”, the “polyreactivity (PSR sort gate)” value is recorded as “high polyreactivity”.

Take “QGQLVESGGGLVQAGGSLRLSCPASGRIYVFYAMGRYRQATGKEREFVATISYSGDTTYYADSVKGRFTISRDNAKNTVYLQMNSLKPEDTAVYYCAADLVPSYYYVPMGYDSWGQGTQVTVSS”: the “polyreactivity (PSR sort gate)” value is “low polyreactivity”.

In the case of “QGQLVESGGGLVQAGGSLRLSGAASGRTFRCNAMGWYRQAPGKERELVAAITSSGGRTYYADSVNGRFTISRDNAKNTVYLQMNSLKPEDTAVYYCAADAYQRGSGRYYEYDYWGQGTQVTVSS”, the “polyreactivity (PSR sort gate)” value is reported as “high polyreactivity”.

As for “QGQLVESGGGLVQAGGSLRLSSAASGNTFYGYAMGWYRQSPGKERELVASITLSGDSTYYADSVKGRFTISRDNAKNTVYLQMNSLKPEDTAVYYWAGVYTYPLGYYHYTYDYWGQGTQVTVSS”, the “polyreactivity (PSR sort gate)” value is reported as “low polyreactivity”.

Take “QGQLVESGGGLVQAGGSLSLSCAASGSIFPVYAMGWYRQAPGTEREFVARIRFSGGRTYYADSVQGRFTISRDNAKNTVYLQMNSLKPEDTAVYYCAKAQYRGRYGYWGQGTQVTVSS”: the “polyreactivity (PSR sort gate)” value is given as “high polyreactivity”.

For “QGQLVESGGGLVQAGGSLSLSCAASRFTFQRYAMGWDRQAPGKERELVAAISVSGGRTYYADSVKGRFTISRDNAKNSVYLQMNSLKPEDTAVYYCAAEGFLGWYYYWGQGNQVTVSS”, the “polyreactivity (PSR sort gate)” value is recorded as “high polyreactivity”.

On to “QGQLVESGGGLVQAGGSRRLSCAASGRIFFYYAMGGYRQGPGQARELVAAISQSGASTYYADSVKGRFTISRDTAKNTVYLQMNSLKPEDTAVYYCNHKPYWYRDYYYWGQGTQVTVSS”, for which the “polyreactivity (PSR sort gate)” value is “high polyreactivity”.

As to “QGQLVESGPVLVQAGCSLRLSSAASGYTFGWYAMGWYRQAPGKLRELVAGISSAGSTNYADSVNGRFTISRDNANINVYLQMNSLKPEDTAVYYCAAEVRYWFLADDYWGQGTQVTVSS”, the “polyreactivity (PSR sort gate)” value is given as “high polyreactivity”.

As to “QGQLVESVGGLVQAGVSLRLSCAASGRIFPSYAMGCYRPAPGKERELVAAISSSGGRTYYADSVKGRFTISRDNAKNTVYLQMNSLKPEDTAVYYCAARWVHYGVRYDYWGPGTQVTVSS”, the “polyreactivity (PSR sort gate)” value is “high polyreactivity”.

As for “QGQRVESGGGLVQAGCSLRLSSAASGSTFNEYTLGWYRQAPGKERELVAAIRASDGSTFYADTVKGRFTISRDYAKNSVYFQMNSLKPEDTSVYYCPADYYWNDYWGQGTQVTVSS”, the “polyreactivity (PSR sort gate)” value is “low polyreactivity”.

As to “QGQVVESGGGLVQAGGSLRLSCAASGSTFYGYAMGWYREAAGKERELVAAISRDGSTNYADSVKGRFTISRDNAKNTVYLQMNSLKPEDTAVYYCATRTKKRAPYKFYSWGQGTQVTVSS”, the “polyreactivity (PSR sort gate)” value is listed as “high polyreactivity”.

For “QHQLVESGGGLVQAGGSLRLSCAASGRTSLDYAMGWYRQAPGKERELVSAIRSGGITNYADSVKGRFTISRDNAKNTVYLQLNSLKPEDTAVYYCAARVHRAYSTGSIVYYWGQGTQVNVSS”, the “polyreactivity (PSR sort gate)” value was “high polyreactivity”.

As for “QIKLEESGGGLVQAGGSLRISCAASGSTYWDKVMGWYRQAPGKEMELVAAIDSGGSTYYADSVKGRFTISRDNAKNTVYLLMNSLKPEDTEVYYCNSRVDTPSPYDYWGQGTQVTVSS”, the “polyreactivity (PSR sort gate)” value is given as “low polyreactivity”.

For the sequence “QIQLEESGGGLVQAGGSLRLSCAASGSIFSVYAMGWYRQAPGKERELVATISTGGSTYYADSVKGRFTISRDNAKNTVYLQMNSLKPEDTAVYYCNAQFTPRYWGGYDSWGQGTQVTVSS”, the “polyreactivity (PSR sort gate)” value was “low polyreactivity”.

Regarding “QIQLEESVGGLVQAGGTLRLSCASSGFTFYINVMGWDRQAPGKERELVAAISGTGGTNYADSVKGRFTISRDNAKNTVYLQMNSLKPEDTAVYYCARDYYVYSTGHVPLDYWGQGTQVTVSS”, the “polyreactivity (PSR sort gate)” value was “low polyreactivity”.

On to “QIQLVESGGGLVQAGGSLRLSCAASGGIFYINAMGWYRQAPGKERELVAAITESSDITYYADSVKGRFTISRDNAKNSVYLQINSLKPEDTAVYYCAAEFVRSGDDYWGQGTQVTVSS”, for which the “polyreactivity (PSR sort gate)” value is on record as “low polyreactivity”.

Consider “QIQLVESGGWLVQAGGSLRLRCAASGNTIHWNVMVWYRQPPGKERELVATITFSGSSTYYADSVKGRFTISRDNAKNTVYLQMNSLQPEDTAVYFCNATRYRLRPSGVRYKYNYWGQGTQGTVSS”, for which the “polyreactivity (PSR sort gate)” value is “low polyreactivity”.

As to “QLHLQESGGLVQAGGLRLSCAASGSVSYQEAMGWYRQAPGKERELVATISFGANTNYADSVKGRFTISRDNAKNTVYLQMNSLKPEDTAVYYCAAESLFDDYYGYWGQGTQVTVSS”, the “polyreactivity (PSR sort gate)” value is on record as “low polyreactivity”.

Turning to “QLHLQVSGGGLVQAGGSLRLSCAASGSIFLTSEKGWYRQAPGKERELVAAIATGTSTNYADSVKGRFTISRDNAKNTVYLQLNSLKPEDTAVYYCATYDYWGQGTKVTVSS”, the “polyreactivity (PSR sort gate)” value was “low polyreactivity”.

Consider “QLKLVESGGGLVQAGGSLRLSCAASGSIFDVNAMGWYREAPGKEMELVAAISDSGGSTYYADSVKGRFTISRDNAKNTVYLQMNSLKPEDTAVYYCNADWSWYHYYDCDYWGQGTQVTVSS”, for which the “polyreactivity (PSR sort gate)” value is “low polyreactivity”.

As for “QLQHVESGGGLVQAGGSLRLSCAASGGIFGIYAMGWYRQAPGKESELVAAISRRGGSTYFADSVKGRFTISRDNAKNTVYLQMKSLKPADTAVYYCAAVRRGVNTSFGYRPLNYWGQGTEVTVSS”, the “polyreactivity (PSR sort gate)” value is “high polyreactivity”.

For the sequence “QLQHVESGGGLVQAGGSLRLSCAASGSTFYRNAMGWYRQAPGKDRELVAAISRGSRTYYADSVKGRFTISRDNAKNTVYLQMNSLKPEDTAVYYCAALYGSRSTYHMDDYWGQGTQVTVSS”, the “polyreactivity (PSR sort gate)” value is listed as “high polyreactivity”.

Regarding “QLQHVETGGGLVQAGGSLRLSCAASGRIFIRNHMGWYRQAPGKERELVAVITRSGGRTYYADSVKGRFTISRDNANNTVYLQMNRVKPEDTAVYYCAKRQAFKQATYDYWGQGTQVTVSS”, the “polyreactivity (PSR sort gate)” value is listed as “low polyreactivity”.

Turning to “QLQLEESGGGLVQAGGSLRLSCAASRRIIVGYAKGRYRQAPGKEREFVAAITFRGGTTYYADSVKGRLTISRDNAKNTVYLQMNSLNQEDSAVYYCAVPHYLYSVEFGYWGQGTQVTVSS”, the “polyreactivity (PSR sort gate)” value is listed as “low polyreactivity”.

Turning to “QLQLGESGGGLVQAGGSLRLSCAGSGSIFNYYAMGWYRQATGKERELVAAITSGGSTYYADSVKGRFTISRDNAKNTVYLQMNSLKPEDTAVYYCNKAFPYIYEYWGQGTQVTVSS”, the “polyreactivity (PSR sort gate)” value is given as “low polyreactivity”.

As to “QLQLQEGGGGLLQAGGSLRLSCAASGYISYGDVMGWYRQAPGEERELVASIGLDATTNYADSVKGRFTISRDNSKNTVYLQMNSLKPEDTAVYYCPADRGAPFSLHYWGQGTQVTVSS”, the “polyreactivity (PSR sort gate)” value was “high polyreactivity”.

With “QLQLQESSGGLVQAGGSMRMTCAASGTIFHFHIMGWYRPAPGKEREFVAAISYGTSTYYADSVKGRFTISRDNAKNTVYLQMNSQKPEDTAVYYCAVYDYLEVYCWYWGQGTQVTVSS”, the “polyreactivity (PSR sort gate)” value was “low polyreactivity”.

In the case of “QLQLVDSGGGLVQAGGRLSLSCAASGSIFYRYAMGWYIQAPGKERELVAAITSGGRTYYADSVKGRFTISRDNAKNTVYLQMNSLNPEDTAVYFCNAVYRKTSYGYWGQGTQVTVSS”, the “polyreactivity (PSR sort gate)” value is “high polyreactivity”.

“QLQLVDSGGGLVQAGGSLRLSCAASGRTFRIYAMGWYRKAPGKERELVASITGGGTTNYADSVKGRFTISRDNAKYTVYLQMNSLKPEDTAVYYCAARSRTRPNVPGYGYWGQGTQVTVSS”: the “polyreactivity (PSR sort gate)” value is given as “high polyreactivity”.

“QLQLVESCGGLFQAGGSLRLSCADSGSTFGDHAMGCYRQAPGKERELVAVITSDTSTYYADSLKWRLTISRDNAKNTVYLQMNSMKPEDTAVYYCAADWGGLWFWYEYWGQGTQVTVSS”: the “polyreactivity (PSR sort gate)” value is on record as “low polyreactivity”.

Take “QLQLVESCGVLVQAGGSLRLSCAASGRTHGNNAMGCYRQAPGKERELVAITYRGGSTYYADSVKGRFTISRDNAKNTVYLQMNSLKPEDTAVYYCNVDIISKVDTNKYEYWGQGTQVTVSS”: the “polyreactivity (PSR sort gate)” value is on record as “low polyreactivity”.

Take “QLQLVESGGGLGQAGGRLRLSCAASGSTFGRYAKGCYIQAPGKERELVAAITSDTGNTNFADSVKGRLTISRDNAKNTVYLQMNSLKPEDTAVYYCAAATFWVLWGDVIGNYDSWGQGTQVTVSS”: the “polyreactivity (PSR sort gate)” value is “low polyreactivity”.

For the sequence “QLQLVESGGGLVQAGGRLRLSCAASGLNFYDNMGWYRQPPGKEREFVAAISSSGGSTSYADSVKGRFTISRDNAKNTVYLQMNSLKPEDRAVYYCAADSYPAYLGFVGFDYWGQGTQVTVSS”, the “polyreactivity (PSR sort gate)” value was “low polyreactivity”.

On to “QLQLVESGGGLVQAGGRLRLSCAASGRTLGKYAMGWYRQAPGKEREFVAAISSSGSRTFYADSVKGRFTISRDNAKYTVSLQMNSLKPEDTAVYYCAADYYSRGYGYWGQGTQVTVSS”, for which the “polyreactivity (PSR sort gate)” value is “high polyreactivity”.

On to “QLQLVESGGGLVQAGGSLPLTCAASGRTFARNAMGWYRQAPGKERELVARISRRAGSTYYADSVKGRFTISRDNAKNTVYLQMNSLKPAETAVYYCNAGPPYSYARDYWGQGTQVTVSS”, for which the “polyreactivity (PSR sort gate)” value is given as “high polyreactivity”.

As to “QLQLVESGGGLVQAGGSLRLSCAANGSTFWIYAMGWYRQAPGKERELVAAITLRSGSTYYADSVKGRFTMSRDNAKNTVYLQMNSLKPEDTAVYYCATDSWGVDRPNYNYWGQGTQVTVSS”, the “polyreactivity (PSR sort gate)” value was “low polyreactivity”.

As to “QLQLVESGGGLVQAGGSLRLSCAASGFIFSTYAMGWYRQAPGKERELVAAISRSGGSTYYADSVKGRFTISRDNAKNTVYLQMNSLKPEDTAVYYCNLSQAAFRTGYDYWGQGTQVTVSS”, the “polyreactivity (PSR sort gate)” value is given as “high polyreactivity”.

As to “QLQLVESGGGLVQAGGSLRLSCAASGFTFGVYAKGWYRQAPGKEREFVAAISWRGGSTYYADSVKGRFTISRDNAKITVYLQMNSLKPEDTAVYYCAADVLERGYGHYNYWGQGTQVTVSS”, the “polyreactivity (PSR sort gate)” value is given as “high polyreactivity”.
